According to the supplement of paper PMC10126150:
± gives the standard deviation of the averaged measurements.

tested on: ATP; test: switch fluorescence ratio, 500 uM ATP over buffer (Cy3 cluster intensity, sum of 5 cycles each) (fold (ratio)); higher = stronger signal-on switching upon ATP binding; sequences stand for … in TCGTCGGCAGCGTCAGATGTGTATAAGAGACAGTTTTTTTTTTTTTTTTTTTTTTTTT…TC; conditions: aptamer strand: ATP DNA aptamer (quencher-CACCTGGGGGAGTATTGCGGAGGAAGG + anchor), 100 nM annealed; ATP concentration: 500 uM
In short: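 Clusters with intensities outside 100-1000 RFU were excluded. The remaining Cy3-labelled switching-strand clusters on a modified Illumina MiSeq flow-cell had been annealed to 100 nM quencher-labelled ATP aptamer and imaged in selection buffer, then after 15 min with 500 uM ATP at 22 °C, for five cycles separated by NaOH stripping and re-annealing. The fluorescence ratio, averaged per switch-domain sequence, is each cluster's summed target-cycle Cy3 intensity over its summed buffer-cycle Cy3 intensity.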
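Further: ATP exposure 15 min at 22 °C before imaging.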

Sequence | switch fluorescence ratio
TGTGTTTTTG | 1.01 ± 0.015
TGTTAAATGG | 0.962 ± 0.014
TGTTAATAAG | 0.9618 ± 0.0071
TGTTAATAGT | 0.981 ± 0.015
TGTTAATCAC | 1.02 ± 0.034
TGTTAATTGG | 1.02 ± 0.043
TGTTACGGTG | 1.002 ± 0.0031
TGTTACTACG | 1.0494 ± 0.00016
TGTTACTAGC | 1.03 ± 0.0034
TGTTAGCCGA | 1.02 ± 0.026
TGTTAGCCTT | 1.04 ± 0.017
TGTTAGTTTG | 0.981 ± 0.029
TGTTATATTA | 1.01 ± 0.034
TGTTATTGGG | 0.987 ± 0.042
TGTTCGCATG | 1.08 ± 0.032
TGTTCTAGGT | 1.014 ± 0.0018
TGTTCTTAAG | 0.975 ± 0.022
TGTTGAAAGG | 0.995 ± 0.046
TGTTGAAGAT | 1.005 ± 0.0076
TGTTGATA | 0.968 ± 0.016
TGTTGCCGGG | 1.0541 ± 0.00067
TGTTGCGGGC | 1 ± 0.12
TGTTGCTTCG | 1.03 ± 0.042
TGTTGGAAGG | 1.01 ± 0.014
TGTTGGCACA | 1.015 ± 0.0012

Sequence | switch fluorescence ratio
TGTTGGGGTA | 1.03 ± 0.06
TGTTGGGTGG | 0.9948 ± 0.00021
TGTTGGTAGG | 0.964 ± 0.03
TGTTGTAAAC | 1.05 ± 0.032
TGTTGTAGCT | 1.02 ± 0.031
TGTTGTGACA | 0.967 ± 0.026
TGTTGTGGGT | 1.002 ± 0.0063
TGTTGTTAAA | 0.982 ± 0.012
TGTTGTTGAT | 0.985 ± 0.036
TGTTTAAATT | 0.983 ± 0.013
TGTTTAAGCG | 0.958 ± 0.085
TGTTTAAGGT | 0.9871 ± 0.0045
TGTTTATGAG | 0.9849 ± 0.0034
TGTTTATGGT | 1.02 ± 0.017
TGTTTCAATT | 1.02 ± 0.021
TGTTTCGACG | 0.986 ± 0.038
TGTTTGATGT | 0.983 ± 0.019
TGTTTGGGAG | 1.01 ± 0.031
TGTTTGTATC | 1.01 ± 0.016
TGTTTGTGGC | 1.12 ± 0.16
TGTTTTATCG | 0.999 ± 0.028
TGTTTTATG | 1.007 ± 0.0086
TGTTTTCGCT | 0.9969 ± 0.0097
TGTTTTCGT | 1.02 ± 0.011
TGTTTTGACG | 1.07 ± 0.085

Sequence | switch fluorescence ratio
TGTTTTGAGC | 1 ± 0.037
TGTTTTTAAT | 0.99 ± 0.025
TGTTTTTGGA | 1 ± 0.026
TTAAAAAAAT | 1.73 ± 1.4
TTAAAAAACT | 1.02 ± 0.031
TTAAAAATAG | 0.976 ± 0.027
TTAAAAATGG | 1.02 ± 0.018
TTAAAAGGGT | 0.99 ± 0.013
TTAAAAGTTG | 1.051 ± 0.0097
TTAAAATATA | 0.984 ± 0.059
TTAAAATCCT | 1.12 ± 0.11
TTAAACGAGT | 0.997 ± 0.017
TTAAAGAGGG | 0.974 ± 0.054
TTAAAGCACT | 1.19 ± 0.2
TTAAAGCGGC | 0.993 ± 0.083
TTAAAGCGTG | 0.969 ± 0.011
TTAAAGGAGG | 1.02 ± 0.044
TTAAAGGCTT | 0.997 ± 0.019
TTAAAGGGA | 1.01 ± 0.022
TTAAAGGGGA | 1.04 ± 0.049
TTAAAGGGTG | 1.08 ± 0.048
TTAAAGGTTT | 1.01 ± 0.018
TTAAAGTGTT | 1.09 ± 0.16
TTAAAGTTTT | 1.01 ± 0.032
TTAAATTATT | 0.984 ± 0.024

Sequence | switch fluorescence ratio
TTAAATTCAT | 0.97175 ± 0.0009
TTAAATTTCT | 1.02 ± 0.0034
TTAAATTTTA | 1.01 ± 0.019
TTAACAATCG | 1.02 ± 0.02
TTAACATATA | 1.017 ± 0.0088
TTAACCAGTC | 1.04 ± 0.022
TTAAGAAAAG | 1.1 ± 0.065
TTAAGAAGCG | 1.01 ± 0.06
TTAAGAGACA | 1.03 ± 0.033
TTAAGAGATA | 0.989 ± 0.018
TTAAGAGGG | 0.987 ± 0.014
TTAAGAGGGG | 0.975 ± 0.042
TTAAGAGGGT | 0.997 ± 0.015
TTAAGATAGG | 1.01 ± 0.025
TTAAGATGTA | 1.01 ± 0.039
TTAAGATGTT | 0.993 ± 0.016
TTAAGCAACA | 1.13 ± 0.018
TTAAGCGGCC | 1.067 ± 0.0072
TTAAGCTGAA | 0.961 ± 0.044
TTAAGGACTT | 1.01 ± 0.011
TTAAGGATAC | 1.15 ± 0.21
TTAAGGCACG | 0.999 ± 0.017
TTAAGGCATG | 0.997 ± 0.018
TTAAGGGAAG | 1.02 ± 0.036
TTAAGGGCAT | 1 ± 0.015
